This data set concerns the molecule itself. The experiment in a line: hydrogelation with CD, TEM and rheology.

Square brackets hold non-standard residues; d marks the D form.

Experimental findings from article PMC6891851 (ACS Central Science, 2019) are described below.

B1: AcVES3 peptide hydrogel (peptide)
peptide: Ac-VEVSVSVEV[dP]PTEVSVEVEV-NH2
SMILES: CC(=O)N[C@H](C(=O)N[C@@H](CCC(=O)O)C(=O)N[C@H](C(=O)N[C@@H](CO)C(=O)N[C@H](C(=O)N[C@@H](CO)C(=O)N[C@H](C(=O)N[C@@H](CCC(=O)O)C(=O)N[C@H](C(=O)N1CCC[C@@H]1C(=O)N1CCC[C@H]1C(=O)N[C@H](C(=O)N[C@@H](CCC(=O)O)C(=O)N[C@H](C(=O)N[C@@H](CO)C(=O)N[C@H](C(=O)N[C@@H](CCC(=O)O)C(=O)N[C@H](C(=O)N[C@@H](CCC(=O)O)C(=O)N[C@H](C(N)=O)C(C)C)C(C)C)C(C)C)C(C)C)[C@@H](C)O)C(C)C)C(C)C)C(C)C)C(C)C)C(C)C
With B1, the binding result was “binds”.
